From patent US20240254238A1 (OXFORD BIOTHERAPEUTICS, published 2024)

B1: DM4-conjugated anti-LY75 monoclonal antibody 8A3 (antibody, V domains shown)
VH: EVQLVESGGGLIQPGGSLRLSCAASGFTVSSNYMSWVRQAPGKGLEWVSVIYSGGSTYYTDSVKGRFTISRDNSKNTLYLQMNSLRAEDTAVYYCARDKSGWNGFDYWGQGTLVTVSS
VL: DVQMTQSPSSLSASVGDRVTITCRASQSVSTYLHWYQQKPGKAPKLLIYAASSLQGGLPSRFSGSGSGTDFTLTISSLQPEDFATYYCQQSSSTPLTFGGGTKVEITR
modifications: antibody conjugated to the maytansinoid DM4; attachment residues not stated
B2: DM4-conjugated anti-LY75 monoclonal antibody 16A5 (CD205_A1) (antibody, V domains shown)
VH: EVQLVESGGGLVKPGGSLRLSCAASGFTYSNAWMSWVRQAPGKGLEWVGRIKSKTDGGTTDYAAPVQGRFTISRDDSKNTLYLQMNSLKTEDTAVYYCTIFGVVSFDYWGQGTLVTVSS
VL: DVQMTQSPSSLSASVGDRVTITCRASQSISDYLSWYQQRPGKAPNLLIYAASNLKTGVPSRFSGSGSGTDFTLTISTLQPEDFATYYCQQSYRSPWTFGQGTKVEIKR
modifications: antibody conjugated to the maytansinoid DM4; attachment residues not stated

Molecular target: human CD205 (human, UniProt O60449 28-1722)
Assay: cell-based or functional assay

human CD205, sequence (O60449 28-1722 limits assumed): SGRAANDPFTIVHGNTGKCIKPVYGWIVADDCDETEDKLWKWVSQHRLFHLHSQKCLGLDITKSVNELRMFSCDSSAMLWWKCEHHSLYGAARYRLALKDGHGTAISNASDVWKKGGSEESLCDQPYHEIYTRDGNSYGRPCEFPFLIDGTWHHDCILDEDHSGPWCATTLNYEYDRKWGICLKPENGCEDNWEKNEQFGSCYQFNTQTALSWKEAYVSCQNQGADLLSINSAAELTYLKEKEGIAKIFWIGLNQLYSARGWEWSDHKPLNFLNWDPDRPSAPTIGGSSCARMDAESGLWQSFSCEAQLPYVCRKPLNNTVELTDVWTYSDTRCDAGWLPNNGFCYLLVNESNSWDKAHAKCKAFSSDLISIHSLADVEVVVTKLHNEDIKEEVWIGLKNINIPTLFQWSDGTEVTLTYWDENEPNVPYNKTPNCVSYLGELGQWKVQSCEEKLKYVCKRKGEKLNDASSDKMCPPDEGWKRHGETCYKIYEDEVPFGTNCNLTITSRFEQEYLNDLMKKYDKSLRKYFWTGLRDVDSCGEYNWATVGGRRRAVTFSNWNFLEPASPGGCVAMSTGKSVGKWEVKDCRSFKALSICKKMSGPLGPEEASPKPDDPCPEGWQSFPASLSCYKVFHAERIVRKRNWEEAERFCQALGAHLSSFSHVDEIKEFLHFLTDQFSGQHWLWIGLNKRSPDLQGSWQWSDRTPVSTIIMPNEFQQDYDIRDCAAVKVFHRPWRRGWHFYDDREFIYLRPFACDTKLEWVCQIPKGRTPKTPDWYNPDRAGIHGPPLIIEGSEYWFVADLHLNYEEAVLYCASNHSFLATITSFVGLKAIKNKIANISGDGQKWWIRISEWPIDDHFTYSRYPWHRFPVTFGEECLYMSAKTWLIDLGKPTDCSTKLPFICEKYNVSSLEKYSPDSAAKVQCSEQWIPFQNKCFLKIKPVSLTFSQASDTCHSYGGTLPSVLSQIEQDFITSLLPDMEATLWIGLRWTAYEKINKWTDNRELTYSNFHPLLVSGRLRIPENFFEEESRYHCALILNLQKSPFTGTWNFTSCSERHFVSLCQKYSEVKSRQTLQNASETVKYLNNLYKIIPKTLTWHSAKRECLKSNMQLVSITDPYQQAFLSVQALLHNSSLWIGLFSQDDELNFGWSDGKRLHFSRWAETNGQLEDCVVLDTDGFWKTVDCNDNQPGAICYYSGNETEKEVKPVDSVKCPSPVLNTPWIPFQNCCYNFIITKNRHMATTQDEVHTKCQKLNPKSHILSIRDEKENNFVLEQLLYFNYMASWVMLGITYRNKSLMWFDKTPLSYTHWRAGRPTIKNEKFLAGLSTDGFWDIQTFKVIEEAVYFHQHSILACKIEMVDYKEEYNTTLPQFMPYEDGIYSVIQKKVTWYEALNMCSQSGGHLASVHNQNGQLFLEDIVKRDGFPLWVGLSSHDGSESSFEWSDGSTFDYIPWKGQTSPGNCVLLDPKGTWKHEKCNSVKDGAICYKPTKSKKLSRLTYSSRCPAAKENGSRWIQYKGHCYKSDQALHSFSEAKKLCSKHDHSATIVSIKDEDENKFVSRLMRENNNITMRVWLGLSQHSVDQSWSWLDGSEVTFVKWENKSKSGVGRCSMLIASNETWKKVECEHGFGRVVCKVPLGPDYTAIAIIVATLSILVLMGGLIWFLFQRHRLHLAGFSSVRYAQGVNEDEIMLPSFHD

Binder	EC50 (pM) of % Specific Death, Cell-Titer Glo, Raji cells, 96 hours [pM]	EC50 (pM) of % Specific Death, Cell-Titer Glo, THP1 cells, 96 hours [pM]
B1	1010	98.8
B2	728	37.5
